This is an account of results in PMC11725853 (Proceedings of the National Academy of Sciences of the …, 2024).

In data set [1] the target is trypsin-activated PDE6 isolated from bovine rod outer segment membranes (bovine) (UniProt P11541). In words: inhibition of enzyme activity.
The target in data set [2] is trypsin-activated PDE6 from mouse retina extracts (mouse (endogenous in retina)) (UniProt P27664). As to the kind of experiment: inhibition of enzyme activity.
Data set [3] concerns the molecule itself. In words: mass photometry.

Regarding “full-length Pγc (isolated protein used in PDE6 activity assays) (from UniProt Q13956 1-83) (natural protein)”, the Ki in data set [1] turned out to be 0.0755 nM.

The molecule “full-length Pγr (isolated protein used in PDE6 activity assays) (from UniProt P18545 1-87) (natural protein)” registered a Ki in data set [1] of 0.0294 nM.

Turning to “synthetic peptide of the 25 C-terminal residues of Pγr, Pγr-63-87 (from UniProt P18545 63-87)”, the Ki in data set [2] was found to be 2.5 µM. This counts as single-digit micromolar.

“synthetic peptide of the C-terminus of Pγc, Pγc-59-83 (from UniProt Q13956 59-83)” returned an inhibitory constant (Ki) in data set [2] of 8.2 µM.

B1: human cone cGMP-phosphodiesterase PDE6C catalytic subunit (residues 2-830), catalytic homodimer of holoPDE6C (enzyme, UniProt P51160 2-830, looked up)
chain: GEINQVAVEKYLEENPQFAKEYFDRKLRVEVLGEIFKNSQVPVQSSMSFSELTQVEESALCLELLWTVQEEGGTPEQGVHRALQRLAHLLQADRCSMFLCRSRNGIPEVASRLLDVTPTSKFEDNLVGPDKEVVFPLDIGIVGWAAHTKKTHNVPDVKKNSHFSDFMDKQTGYVTKNLLATPIVVGKEVLAVIMAVNKVNASEFSKQDEEVFSKYLNFVSIILRLHHTSYMYNIESRRSQILMWSANKVFEELTDVERQFHKALYTVRSYLNCERYSIGLLDMTKEKEFYDEWPIKLGEVEPYKGPKTPDGREVNFYKIIDYILHGKEEIKVIPTPPADHWTLISGLPTYVAENGFICNMMNAPADEYFTFQKGPVDETGWVIKNVLSLPIVNKKEDIVGVATFYNRKDGKPFDEHDEYITETLTQFLGWSLLNTDTYDKMNKLENRKDIAQEMLMNQTKATPEEIKSILKFQEKLNVDVIDDCEEKQLVAILKEDLPDPRSAELYEFRFSDFPLTEHGLIKCGIRLFFEINVVEKFKVPVEVLTRWMYTVRKGYRAVTYHNWRHGFNVGQTMFTLLMTGRLKKYYTDLEAFAMLAAAFCHDIDHRGTNNLYQMKSTSPLARLHGSSILERHHLEYSKTLLQDESLNIFQNLNKRQFETVIHLFEVAIIATDLALYFKKRTMFQKIVDACEQMQTEEEAIKYVTVDPTKKEIIMAMMMTACDLSAITKPWEVQSQVALMVANEFWEQGDLERTVLQQQPIPMMDRNKRDELPKLQVGFIDFVCTFVYKEFSRFHKEITPMLSGLQNNRVEWKSLADEYDAKMKVIEEEA
Take B1: the “stoichiometry N” value in data set [3] was found to be 2.

For orientation: Ki means a dissociation constant, usually derived from enzyme kinetics or from competition with a known ligand. The low end stands for a stronger hold on the target, the high end for a looser hold on the target. The term stoichiometry N denotes a count of units in the complex or per binding partner.
